The results in this text go back to US20250135046A1, “CHOLECYSTOKININ B RECEPTOR-TARGETED COMPLEX AND A CONTRAST AGENT THEREOF” (National Atomic Research Institute, priority 2023, published 2025).

In the series the test system is tumor site where the cholecystokinin B receptor is overexpressed. Further details: species or system nude mice. The settings on record: mouse, in vivo. How it is done: Establishment of tumor animal model: Five-to six-week-old male experimental nude mice are purchased from the National Laboratory Animal Center (NLAC, TAIWAN) and bred in the animal facility. All animal experiment procedures are performed in accordance with the protocols approved by Institutional Animal Care and Use Committee (IACUC, TAIWAN). The experimental mice are kept at a temperature of 21-23° C., and a 12-hour light-dark cycle are used as the basis for the animal's physiological cycle. A431-CCK2R^(−) and A431-CCK2R^(+) cells (2×10^6 cells) are inoculated in the left and right hind limbs of the mice. After the tumors growing to 200-300 mm^3, the radioactive labeled complexes Lu-177-D1, Lu-177-D2, and Lu-177-D3 are used as radiotherapy drugs and start the treatments. The cholecystokinin B receptor-targeted radiotherapy drugs […], Lu-177-D2, and Lu-177-D3 are administrated to the mice respectively by tail vein injection. After different time periods of administration, such as 4, 24, and 48 hours, the coronal sections of three tumor mice are obtained (Refer to FIG. 3). By showing the comparison of NanoSPECT and CT fusion images at different time points, the accumulation of these radiotherapy drugs in the tumor tissue can be observed. Then measure and record the tumor size twice a week. […]

Square brackets hold non-standard residues; d marks the D form. Peptide text beside a SMILES is read from it. * marks the point of attachment. DOTA = O=C(O)CN1CCN(CC(=O)O)CCN(CC(=O)*)CCN(CC(=O)O)CC1; Butanoyl(4-(4-MePh)) = Cc1ccc(CCCC(=O)*)cc1; 4Amb = NCc1ccc(C(=O)O)cc1; Nle = CCCC[C@H](N)C(=O)O; Ahx = NCCCCCC(=O)O

In the case of `CCCC[C@H](NC(=O)[C@H](Cc1c[nH]c2ccccc12)NC(=O)CNC(=O)[C@H](Cc1ccc(O)cc1)NC(=O)[C@H](C)NC(=O)[C@H](CCC(=O)O)NC(=O)[C@H](CCC(=O)O)NC(=O)[C@H](CCC(=O)O)NC(=O)[C@H](CCC(=O)O)NC(=O)[C@H](CCC(=O)O)NC(=O)[C@H](CCC(=O)O)NC(=O)c1ccc(CNC(=O)[C@H](CCCCNC(=O)CCCc2ccc(C)cc2)NC(=O)CN2CCN(CC(=O)O)CCN(CC(=O)O)CCN(CC(=O)O)CC2)cc1)C(=O)N[C@@H](CC(=O)O)C(=O)N[C@@H](Cc1ccccc1)C(N)=O` [Lu-177-D3, metal not drawn] ({DOTA}-K(Butanoyl(4-(4-MePh)))[4Amb]EEEEEEAYGW[Nle]DF-NH2), the “duration of drug accumulation in the tumor site” value was “at least 48 hours”. Consider `CCCC[C@H](NC(=O)[C@H](Cc1c[nH]c2ccccc12)NC(=O)CNC(=O)[C@H](Cc1ccc(O)cc1)NC(=O)[C@H](C)NC(=O)[C@H](CCC(=O)O)NC(=O)[C@H](CCC(=O)O)NC(=O)[C@H](CCC(=O)O)NC(=O)[C@H](CCC(=O)O)NC(=O)[C@H](CCC(=O)O)NC(=O)[C@H](CCC(=O)O)NC(=O)CCCCCNC(=O)[C@H](CCCCNC(=O)CCCc1ccc(C)cc1)NC(=O)CN1CCN(CC(=O)O)CCN(CC(=O)O)CCN(CC(=O)O)CC1)C(=O)N[C@@H](CC(=O)O)C(=O)N[C@@H](Cc1ccccc1)C(N)=O` [Lu-177-D1, metal not drawn] ({DOTA}-K(Butanoyl(4-(4-MePh)))[Ahx]EEEEEEAYGW[Nle]DF-NH2), for which the “duration of drug accumulation in the tumor site” value is reported as “at least 48 hours”.
